Data set [1] in a line: folding stability dG unfold from trypsin proteolysis; higher = more stable. In short, it runs like this:
(§1)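 K50 was inferred by Bayesian fitting of sequencing counts obtained after protease digestion of designed mini-proteins. Unfolding free energy was derived by comparison with a sequence-predicted unfolded-state K50 and a shared folded-state K50, for each protease or both combined. The mini-proteins were under 80 residues, had no cysteine, were carried in a PA-tagged cDNA display construct, and were kept only if AlphaFold2 dimer inter-PAE exceeded 15.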

The nature of data set [2]: folding stability dG unfold from chymotrypsin proteolysis; higher = more stable. In short, it runs like this:
as §1

Data set [3] in a line: folding stability dG unfold (combined trypsin and chymotrypsin); higher = more stable. The procedure, abridged: as §1

± gives the half width of the 95% confidence interval.

Take “SELEDMTPEQLRERIRELLEELREERPGEEVEITIEELLERLPGMSREQLAEILGLTEEELENRTITIRASA [r9_525_TrROS_Hall]”: the “folding stability dG unfold” value in data set [1] worked out at 2.08 ± 0.11 kcal/mol; in data set [2], 2.47 ± 0.085 kcal/mol; in data set [3], 2.35 ± 0.14 kcal/mol.

With “SELVEKAAEKGVKEIHIYLSEEQREAILKAADAGVKITIHLPEGATVEELKALPGIKVDKVEVFSPEELKSA [r9_671_TrROS_Hall]”, the “folding stability dG unfold” value in data set [1] was 0.273 ± 0.044 kcal/mol; in data set [2] it was -0.078 ± 0.082 kcal/mol; in data set [3], 0.0735 ± 0.14 kcal/mol.

Turning to “SENKPVTVLVNVTKNEDGTYTARVFVFDENGKLLAEEEVEAPLEKAVELVEALKKAYPNAKVVAVFTEGLSA [r9_374_TrMRF]”, the results for the “folding stability dG unfold” value in data set [1], in data set [2] and in data set [3] were 3.63 ± 0.23 kcal/mol, 4.81 ± 0.21 kcal/mol and 4.67 ± 0.2 kcal/mol, respectively.

For the sequence “SENPVLKNRPLPVVGTTERTSVAKPGESLDVKELPSNGIVATTPDGSTVGITVTVDANGNVLSLEIKPDPSA [r9_1195_JUSTAS]”, the “folding stability dG unfold” value in data set [1] was found to be 0.00583 ± 0.068 kcal/mol; in data set [2], 0.272 ± 0.069 kcal/mol; in data set [3], 0.164 ± 0.12 kcal/mol.

For the sequence “SENWEPEPITFPDGITIWVMPDYGMIDIIDPDKGTFEMFMIRVDPNGKPEINPLTFKLDPPNGKIKDITPSA [r9_122_TrROS]”, the results for the “folding stability dG unfold” value in data set [1], in data set [2] and in data set [3] were 0.657 ± 0.2 kcal/mol, 0.572 ± 0.91 kcal/mol and 0.49 ± 0.26 kcal/mol, respectively.

“SEPLTPEEVEKFAEWIAKELNEEHGKEVKVEVEYHPDDGYFRAEIEIPNGRRIEITFNPEFGQLDIEVEDSA [r9_9_TrROS]”: the “folding stability dG unfold” value is 1.31 ± 0.18 kcal/mol in data set [1], 2.36 ± 0.062 kcal/mol in data set [2] and 1.71 ± 0.27 kcal/mol in data set [3].

In the case of “SEPVPVKIEISTSVDSNGNPSVTITVYNEEKVYTNPLNGATILSVDPNKQYIVIENPALGTKLTLSYTLISA [r9_1186_JUSTAS]”, the figures for the “folding stability dG unfold” value in data set [1], in data set [2] and in data set [3] were 2.07 ± 0.086 kcal/mol, 2.75 ± 0.048 kcal/mol and 2.49 ± 0.093 kcal/mol, respectively.

As to “SEVEVTVTVTLTRRLPDGREREVTVTLTLRLEFDPELSEEELESPELRKRLEELRREALERARRLAEELASA [r9_237_TrROS_Hall]”, the “folding stability dG unfold” value was 4.64 ± 0.18 kcal/mol in data set [1], 6.52 ± 0.22 kcal/mol in data set [2] and over 6 kcal/mol in data set [3].

For the sequence “SFKLEKTITLPDYVLKIEVTFKPKPDKTVIAPIKVTIYDPVKKKPYTKELTKPFPPEDPLKFVEEALKEIFS [r1_171_TrMRF]”, the “folding stability dG unfold” value was found to be 0.425 ± 0.1 kcal/mol in data set [1], 0.235 ± 0.42 kcal/mol in data set [2] and 0.438 ± 0.33 kcal/mol in data set [3].

In the case of “SFKLPPGQEIKVKIFILFVDPGDGRMYFIKIEYEITIKPDDDGNLDLDIEPTNIEVVGPMPADEAKEFFKSA [r9_423_TrROS]”, the entries for the “folding stability dG unfold” value in data set [1], in data set [2] and in data set [3] were 2.47 ± 0.086 kcal/mol, 2.54 ± 0.16 kcal/mol and 2.34 ± 0.25 kcal/mol, respectively.

In the case of “SFSISTETKVVPQDGRLLIEYEFTVPNAPPGDTAALTLSVSHPSGASTSTSQTADPAGTYTAKFVVDIPLTS [r1_161_JUSTAS]”, the “folding stability dG unfold” value in data set [1] was found to be 0.437 ± 0.061 kcal/mol; in data set [2], 0.471 ± 0.09 kcal/mol; in data set [3] it was 0.527 ± 0.053 kcal/mol.

For the sequence “SGEPVIVKITFPDGTVLEIEFEGTPEEVKEAVEEEIKEYAKKHGLKPGEFKVEVIKAGDKTKETYTIKVESA [r9_1193_TrMRF]”, the “folding stability dG unfold” value in data set [1] was found to be 1.5 ± 0.098 kcal/mol; in data set [2] it was 2.03 ± 0.071 kcal/mol; in data set [3], 1.87 ± 0.15 kcal/mol.

For the sequence “SGFEVERVEVEADLDKPTVARFLLVNPDGQPIVALDPVVRLGEEALVLSVYRNPVDGELRVTARRIRLDGSA [r9_269_TrMRF]”, the “folding stability dG unfold” value was 1.1 ± 0.068 kcal/mol in data set [1], 1.24 ± 0.11 kcal/mol in data set [2] and 1.21 ± 0.043 kcal/mol in data set [3].

In the case of “SGFTVEVEVEYYPETGVLEVTVTTDGSSEQLIRDVADFIKEAGLDFVIESVEVEESGEVTTITLKLYVPPSA [r9_164_TrMRF]”, the figures for the “folding stability dG unfold” value in data set [1], in data set [2] and in data set [3] were 3.03 ± 0.18 kcal/mol, 4 ± 0.12 kcal/mol and 3.78 ± 0.21 kcal/mol, respectively.

“SGGMVNATVTVTLPLPDLPPVTLTVTITEEATPEEAEARKKALAAELEAELRAAAADAALPAPALTSALLSA [r9_626_JUSTAS]”: the “folding stability dG unfold” value is 1.85 ± 0.032 kcal/mol in data set [1], 0.156 ± 0.43 kcal/mol in data set [2] and 1.24 ± 0.29 kcal/mol in data set [3].

For the sequence “SGKVVATVPLPDGTVITVEVSPDNTVRVTVVRYRLVPNSTAPAVEVRTYTFPLPPGNPPSIQDVLDRVLSSA [r9_614_TrMRF]”, the results for the “folding stability dG unfold” value in data set [1], in data set [2] and in data set [3] were 4.05 ± 0.14 kcal/mol, 4.53 ± 0.053 kcal/mol and 4.41 ± 0.098 kcal/mol, respectively.

For the sequence “SGLKDVISVTVTQSPTAGEVPVVTAYSPDGSRTFNLAPEETEAFLKALREAGYNVVVTDRVFVPVPAELGSA [r9_607_JUSTAS]”, the “folding stability dG unfold” value in data set [1] turned out to be 1.676 ± 0.016 kcal/mol; in data set [2], 1.38 ± 0.052 kcal/mol; in data set [3], 1.56 ± 0.052 kcal/mol.

As for “SGMDSNPKTTTENISFEEALKRLPSSVTSVEPRGESVVIKQSSPDSLTVVTMTRDPSSDSAPATTTTYLSSA [r9_604_JUSTAS]”, the “folding stability dG unfold” value in data set [1] was determined as 0.304 ± 0.087 kcal/mol; in data set [2] it was 0.181 ± 0.36 kcal/mol; in data set [3] it was 0.341 ± 0.17 kcal/mol.

These data come from the supplement of paper PMC12764529.
